From PMC10070186 (2023)
Blank lines part the entries; values can stand above or below the binder they belong to.

Assays:
CgnC = target: T1, CgnC (Chondromyces crocatus CM c5); experiment: MST; CgnA at constant high concentration
T1 chain: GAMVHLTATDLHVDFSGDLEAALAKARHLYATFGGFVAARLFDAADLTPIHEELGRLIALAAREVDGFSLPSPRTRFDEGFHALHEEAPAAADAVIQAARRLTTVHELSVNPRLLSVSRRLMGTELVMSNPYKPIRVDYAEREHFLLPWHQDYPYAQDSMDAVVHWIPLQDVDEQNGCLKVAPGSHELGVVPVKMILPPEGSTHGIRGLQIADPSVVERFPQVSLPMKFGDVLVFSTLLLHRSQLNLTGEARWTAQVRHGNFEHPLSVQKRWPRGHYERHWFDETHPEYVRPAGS

CgnB = target: T2, CgnB (Chondromyces crocatus CM c5); experiment: MST
T2 chain: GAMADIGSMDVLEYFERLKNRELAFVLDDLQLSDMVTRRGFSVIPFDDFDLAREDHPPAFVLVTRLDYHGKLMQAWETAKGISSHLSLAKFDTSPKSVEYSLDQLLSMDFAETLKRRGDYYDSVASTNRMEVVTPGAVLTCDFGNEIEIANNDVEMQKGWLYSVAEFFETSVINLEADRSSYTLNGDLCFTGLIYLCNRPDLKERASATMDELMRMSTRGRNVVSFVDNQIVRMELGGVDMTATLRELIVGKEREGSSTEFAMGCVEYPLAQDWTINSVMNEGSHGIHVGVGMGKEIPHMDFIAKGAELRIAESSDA

CgnE [1] = target: T3, CgnE (Chondromyces crocatus CM c5); experiment: MST
T3 chain: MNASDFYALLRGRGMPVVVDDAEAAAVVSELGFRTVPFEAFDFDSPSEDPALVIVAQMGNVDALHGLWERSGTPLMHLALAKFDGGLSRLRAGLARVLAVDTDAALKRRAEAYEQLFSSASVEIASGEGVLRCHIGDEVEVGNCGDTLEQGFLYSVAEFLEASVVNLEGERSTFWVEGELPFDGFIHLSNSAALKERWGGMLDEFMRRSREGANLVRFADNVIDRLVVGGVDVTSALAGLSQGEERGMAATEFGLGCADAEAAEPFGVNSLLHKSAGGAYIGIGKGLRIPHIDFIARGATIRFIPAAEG

CgnE [2] = target: T3, CgnE; experiment: CgnE titrated
CgnE [3] = target: T3, CgnE; experiment: MST; CgnA at constant high concentration
[4] = target: T4, CgnB in the presence of CgnA (400 µM) (Chondromyces crocatus CM c5); experiment: CgnA present with CgnC, CgnB titrated
T4 chain: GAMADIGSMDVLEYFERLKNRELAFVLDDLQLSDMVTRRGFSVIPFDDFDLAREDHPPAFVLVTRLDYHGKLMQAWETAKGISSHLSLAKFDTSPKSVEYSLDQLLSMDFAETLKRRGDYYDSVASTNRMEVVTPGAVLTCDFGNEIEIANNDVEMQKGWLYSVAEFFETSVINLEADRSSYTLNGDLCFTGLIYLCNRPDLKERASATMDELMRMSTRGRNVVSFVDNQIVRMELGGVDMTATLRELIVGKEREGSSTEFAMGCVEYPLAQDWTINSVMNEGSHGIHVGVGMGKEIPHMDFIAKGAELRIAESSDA

[5] = target: T5, CgnE in the presence of CgnA (400 µM) (Chondromyces crocatus CM c5); experiment: CgnA present with CgnC, CgnE titrated
T5 chain: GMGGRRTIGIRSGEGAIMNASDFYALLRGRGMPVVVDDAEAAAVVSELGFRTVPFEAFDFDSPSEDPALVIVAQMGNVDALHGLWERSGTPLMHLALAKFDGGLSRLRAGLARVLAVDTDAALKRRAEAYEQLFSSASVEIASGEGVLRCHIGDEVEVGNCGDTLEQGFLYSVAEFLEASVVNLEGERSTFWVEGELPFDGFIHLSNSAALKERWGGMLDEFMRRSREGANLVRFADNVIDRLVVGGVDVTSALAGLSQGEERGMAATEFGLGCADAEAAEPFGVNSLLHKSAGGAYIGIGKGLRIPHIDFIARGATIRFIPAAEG

Kd (CgnC): 110 nM
B1: CgnB in the presence of CgnA (400 µM) (complex)
chain: GAMADIGSMDVLEYFERLKNRELAFVLDDLQLSDMVTRRGFSVIPFDDFDLAREDHPPAFVLVTRLDYHGKLMQAWETAKGISSHLSLAKFDTSPKSVEYSLDQLLSMDFAETLKRRGDYYDSVASTNRMEVVTPGAVLTCDFGNEIEIANNDVEMQKGWLYSVAEFFETSVINLEADRSSYTLNGDLCFTGLIYLCNRPDLKERASATMDELMRMSTRGRNVVSFVDNQIVRMELGGVDMTATLRELIVGKEREGSSTEFAMGCVEYPLAQDWTINSVMNEGSHGIHVGVGMGKEIPHMDFIAKGAELRIAESSDA
modifications: sequence from Supplementary Table 8 (the excerpt mark inside it is read as contiguous); N-terminal GA is a cloning remnant; dimer by size-exclusion chromatography

Kd (CgnB): 78200 nM
B2: CgnA leader peptide (CgnA^LP) (peptide)
chain: MKKTIKQISAGDRSKKGN

Kd (CgnE [1]): 1100 nM | Kd (CgnE [2]): 1100 nM | Kd (CgnE [3]): 900 nM | Kd [4]: 110 nM | Kd [5]: 900 nM
B3: CgnC (enzyme)
chain: GAMVHLTATDLHVDFSGDLEAALAKARHLYATFGGFVAARLFDAADLTPIHEELGRLIALAAREVDGFSLPSPRTRFDEGFHALHEEAPAAADAVIQAARRLTTVHELSVNPRLLSVSRRLMGTELVMSNPYKPIRVDYAEREHFLLPWHQDYPYAQDSMDAVVHWIPLQDVDEQNGCLKVAPGSHELGVVPVKMILPPEGSTHGIRGLQIADPSVVERFPQVSLPMKFGDVLVFSTLLLHRSQLNLTGEARWTAQVRHGNFEHPLSVQKRWPRGHYERHWFDETHPEYVRPAGS
modifications: sequence from Supplementary Table 8 (the excerpt mark inside it is read as contiguous); N-terminal GA is a cloning remnant; dimer by size-exclusion chromatography
